The values that follow come from patent publication US20160083450A1, “HUMAN PROTEIN SCAFFOLD WITH CONTROLLED SERUM PHARMACOKINETICS” (THE REGENTS OF THE UNIVERSITY OF CALIFORNIA, priority 2009, published 2016).

Details of data set [1]: species or system Balb/c mice. Conditions: mouse, in vivo. As for the experimental part:
Their pharmacokinetic profile in blood was evaluated in vivo by injecting each ^131I-labeled DIII protein intravenously in Balb/c mice. Blood was drawn from the tail at eight different time points (0-72 h) and the radioactivity was counted in a gamma well counter.

Data set [2] is classed as physicochemical. The procedure: (§1) When dissolved in aqueous solution, the peptide precipitated. Lack of solubility in water immediately renders this peptide inappropriate for in vivo application. Prior to conjugation, the HyNic modified peptide was dissolved in dimethyl formamide (DMF) organic solvent. The purified DIM was modified to incorporate the 4FB moiety at random lysine residues following protocols provided by SoluLink. After conjugation, the peptide/DIII ratio was determined by measuring A354nm to be an average of 2 CEA specific peptides for every DIIIb molecule and the conjugate was soluble in aqueous solutions. Size exclusion chromatography using Superdex 200 column (GE Healthcare Piscataway, N.J.) was used for purification. Purified anti-CEA peptide-DIIIb conjugates were then radiolabeled with ^124I and injected intravenously in four athymic nude mice bearing LS174T (CEA positive) and C6 (CEA negative) tumors. Mice were imaged by small animal PET/CT at 4, 20 and 27 h, after which mice were euthanized, dissected and tissues/organs were counted in a gamma well counter.

In data set [3] the test system is LS174T (CEA positive) tumor. The class given is in vivo, athymic nude mice. The procedure:
as §1

Take “DIII H464A: HSA domain III variant with H464 mutated to alanine”: in data set [1], the “AUC (time integral of the blood uptake)” value turned out to be 199 % ID/g × h, the “Aα (amplitude)” value was 44.95 % ID/g, the “Aβ (amplitude)” value stood at 11.41 % ID/g and the k1 turned out to be 1.438. In data set [1], this molecule registered a k2 of 0.068, a t1/2α of 0.482 h and a t1/2β of 10.2 h.

“DIII WT: HSA domain III wild type (amino acid residues 384 to 585)”: in data set [1], the “AUC (time integral of the blood uptake)” value came to 474.8 % ID/g × h, the “Aα (amplitude)” value worked out at 36.2 % ID/g, the “Aβ (amplitude)” value amounted to 16.81 % ID/g and the k1 is on record as 0.3479. Moreover, in data set [1], the k2 came to 0.04534 and the t1/2α was 1.99 h.

As for “SDWVCEFIKSQWFCNVLASG [CEA specific, cyclic peptide, reference compound]”, in data set [2], the “Solubility in aqueous solution” value is “precipitated”.

B1: anti-CEA peptide-DIIIb conjugate: CEA specific cyclic peptide (HyNic) conjugated to 4FB-modified DIIIb, average of 2 peptides per DIIIb (conjugate)
chain: HADICTLSEKERQIKKQTALVELVKHKPKATKEQLKAVMDDFAAFVEKCCKADDKETCFAEEGKKLVAASQAALGL
peptide: SDWVCEFIKSQWFCNVLASG
modifications: cyclised or stapled
notes: CEA specific cyclic peptide (HyNic) conjugated to 4FB-modified DIIIb, average of 2 peptides per DIIIb
B1: in data set [3] (27 h), the “(CEA positive) tumor/(CEA negative) tumor ratio” value is 1.2, the Tumor/muscle ratio is 5.1 and the tumor/blood ratio turned out to be 0.51. Besides, the “Targeting of CEA positive tumor” value in data set [3] (PET/CT images) is “target the CEA positive tumor”. In data set [3] (mouse, in vivo), the Blood turned out to be 3.00 % ID/g, the “C6 Tumor” value was 1.26 % ID/g, the Carcass was 0.56 % ID/g and the Kidneys was 3.66 % ID/g. Further, in data set [3] (mouse, in vivo), the “LS174T Tumor” value came to 1.53 % ID/g, the Liver turned out to be 1.42 % ID/g, the Lungs is recorded as 2.36 % ID/g and the Muscle was 0.30 % ID/g. Further, in data set [3] (mouse, in vivo), the Spleen is 1.04 % ID/g and the Stomach is listed as 1.07 % ID/g. Besides, the “Solubility in aqueous solution” value in data set [2] is given as “soluble”.
